Test [1] has as its target Pak1 (UniProt Q13153). The experiment in a line: competitive phage ELISA: biotinylated Pak1 immobilised, varying non-biotinylated Pak1 mixed with phage displaying D3.
Test [2] has as its target Pak1 (UniProt Q13153). The experiment in a line: competitive phage ELISA IC50 compared with KD (~IC50) of primary-screen monobodies. (An ELISA detects its analyte on a solid surface through an enzyme-linked reagent.)

In general, IC50 refers to the point on the concentration scale where inhibition reaches its midpoint.

B1: Clone D3 (designed binder, not shown: large carriers; small tags and cut ends)
chain: EQKLISEEDLMAVSDVPRKLEVVAATPTSLLISWDAPWKKTRYYRITYGETGGNSPVQEFTVPGSKSTATISGLKPGVDYTITVYAVTASWPWSKPISINYRTSGGGGSGGGGSGGGGSGGGGSGGGGSDYKDDDDKLASAMAVSDVPRKLEVVAATPTSLLISWDAPSRHIYYYRITYGETGGNSPVQEFTVPGSKSTATISGLKPGVDYTITVYAVTDLYSNSKPISINYRTS
In turn, B1 displayed an IC50 with Pak1 [1] of 1.5 nM. Also, in the test with Pak1 [2], the fold improvement over the binding of the monobodies from the primary screen was 1000 fold.

The values above are taken from US20190055547A1.
